Measured values taken from US20210198640A1 (DENALI THERAPEUTICS, published 2021).
Substitutions are numbered along the chain they refer to.

B1: Clone CH3C.3.2-1 (designed binder)
chain: APELLGGPSVFLFPPKPKDTLMISRTPEVTCVVVDVSHEDPEVKFNWYVDGVEVHNAKTKPREEQYNSTYRVVSVLTVLHQDWLNGKEYKCKVSNKALPAPIEKTISKAKGQPREPQVYTLPPSRDELTKNQVSLTCLVKGFYPSDIAVEWESLGHVWVNFKTTPPVLDSDGSFFLYSKLTVPKSTWQQGWVFSCSVMHEALHNHYTQKSLSLSPGK
notes: modified Fc polypeptide
B2: recombinant cyno TfR ectodomain (ECD), biotinylated (receptor)
chain: CKGVEPKTECERLAGTESPAREEPEEDFPAAPRLYWDDLKRKLSEKLDTTDFTSTIKLLNENLYVPREAGSQKDENLALYIENQFREFKLSKVWRDQHFVKIQVKDSAQNSVIIVDKNGGLVYLVENPGGYVAYSKAATVTGKLVHANFGTKKDFEDLDSPVNGSIVIVRAGKITFAEKVANAESLNAIGVLIYMDQTKFPIVKADLSFFGHAHLGTGDPYTPGFPSFNHTQFPPSQSSGLPNIPVQTISRAAAEKLFGNMEGDCPSDWKTDSTCKMVTSENKSVKLTVSNVLKETKILNIFGVIKGFVEPDHYVVVGAQRDAWGPGAAKSSVGTALLLKLAQMFSDMVLKDGFQPSRSIIFASWSAGDFGSVGATEWLEGYLSSLHLKAFTYINLDKAVLGTSNFKVSASPLLYTLIEKTMQDVKHPVTGRSLYQDSNWASKVEKLTLDNAAFPFLAYSGIPAVSFCFCEDTDYPYLGTTMDTYKELVERIPELNKVARAAAEVAGQFVIKLTHDTELNLDYERYNSQLLLFLRDLNQYRADVKEMGLSLQWLYSARGDFFRATSRLTTDFRNAEKRDKFVMKKLNDRVMRVEYYFLSPYVSPKESPFRHVFWGSGSHTLSALLESLKLRRQNNSAFNETLFRNQLALATWTIQGAANALSGDVWDIDNEF
B3: Clone CH3C.21 (designed binder)
chain: B1 chain with H156L, N160G, F161Y
notes: modified Fc polypeptide
B4: Clone CH3C.25 (designed binder)
chain: B1 chain with L154M, N160G, F161Y, P183D
notes: modified Fc polypeptide
B5: Clone CH3C.34 (designed binder)
chain: B1 chain with H156L, N160F, F161S
notes: modified Fc polypeptide

Columns and labels:
[1] = target: T1, human transferrin receptor protein 1 (TfR) (human, UniProt P02786 89-760, limits assumed); assay: ELISA, TfR coated on plate, Fc-Fab fusion
T1 construct: also called human TfR; hTfR

[2] = target: CH3C.35.N153.bi; assay: SPR, TfR ECD captured, clone injected, steady state
[3] = target: T1, human transferrin receptor protein 1 …; assay: selection from soft randomization libraries

Binder | binding result [3] | also measured
B1 |  | binding result [1]: binds
B2 |  | Kd [2]: 3.3 µM
B3 | binds | 
B4 | binds | 
B5 | binds | 
